This passage reports abundance fitness results from the Human Domainome abundance scans (Beltran et al. 2025).

± gives the uncertainty stated by the source.

B1: POU domain, class 2, transcription factor 1, residues 285 to 354; numbered along this chain, P14859 (parent)
chain: LEELEQFAKTFKQRRIKLGFTQGDVGLAMGKLYGNDFSQTTISRFEALNLSFKNMCKLKPLLEKWLNDAE

In this data set the parent is B1. Briefly: abundance fitness (aPCA) (normalised: wild type 0, dead -1); higher = more abundant; growth selection in yeast, the domain comes from the species named. Conditions: Homo sapiens.
As to LEELEQFAKTFKQRRIKLGFTQGDVGLAMGKLYGNDFSQTTISRFEALNLSFKNMCKSKPLLEKWLNDAE [L58S], the abundance fitness was -0.178 ± 0.025.

Consider LEELEQFAKTFKQRRIKLGFTQGDVGLAMGKLYGNDFSQTTISRFEALNLSFKNMCKVKPLLEKWLNDAE [L58V], for which the abundance fitness stood at 0.005 ± 0.02.

LEELEQFAKTFKQRRIKLGFTQGDVGLAMGKLYGNDFSQTTISRFEALNLSFKNMCKQKPLLEKWLNDAE [L58Q]: the abundance fitness is -0.199 ± 0.04. The result for LEELEQFAKTFKQRRIKLGFTQGDVGLAMGKLYGNDFSQTTISRFEALNLSFKNMCKYKPLLEKWLNDAE [L58Y] reads -0.115 ± 0.057; that for LEELEQFAKTFKQRRIKLGFTQGDVGLAMGKLYGNDFSQTTISRFEALNLSFKNMCKWKPLLEKWLNDAE [L58W], 0.002 ± 0.035; that for LEELEQFAKTFKQRRIKLGFTQGDVGLAMGKLYGNDFSQTTISRFEALNLSFKNMCKNKPLLEKWLNDAE [L58N], -0.396 ± 0.065. As for LEELEQFAKTFKQRRIKLGFTQGDVGLAMGKLYGNDFSQTTISRFEALNLSFKNMCKMKPLLEKWLNDAE [L58M], the abundance fitness was determined as 0.014 ± 0.062. Next, LEELEQFAKTFKQRRIKLGFTQGDVGLAMGKLYGNDFSQTTISRFEALNLSFKNMCKPKPLLEKWLNDAE [L58P]: -0.802 ± 0.03.

With LEELEQFAKTFKQRRIKLGFTQGDVGLAMGKLYGNDFSQTTISRFEALNLSFKNMCKTKPLLEKWLNDAE [L58T], the abundance fitness was -0.07 ± 0.026. For the variant LEELEQFAKTFKQRRIKLGFTQGDVGLAMGKLYGNDFSQTTISRFEALNLSFKNMCKKKPLLEKWLNDAE [L58K], the abundance fitness was -0.202 ± 0.063. The result for LEELEQFAKTFKQRRIKLGFTQGDVGLAMGKLYGNDFSQTTISRFEALNLSFKNMCKLDPLLEKWLNDAE [K59D] reads -0.672 ± 0.084; that for LEELEQFAKTFKQRRIKLGFTQGDVGLAMGKLYGNDFSQTTISRFEALNLSFKNMCKLMPLLEKWLNDAE [K59M], -0.002 ± 0.056. Next, LEELEQFAKTFKQRRIKLGFTQGDVGLAMGKLYGNDFSQTTISRFEALNLSFKNMCKLNPLLEKWLNDAE [K59N]: -0.311 ± 0.054; LEELEQFAKTFKQRRIKLGFTQGDVGLAMGKLYGNDFSQTTISRFEALNLSFKNMCKLAPLLEKWLNDAE [K59A]: -0.028 ± 0.022; LEELEQFAKTFKQRRIKLGFTQGDVGLAMGKLYGNDFSQTTISRFEALNLSFKNMCKLHPLLEKWLNDAE [K59H]: -0.014 ± 0.039. The result for LEELEQFAKTFKQRRIKLGFTQGDVGLAMGKLYGNDFSQTTISRFEALNLSFKNMCKLPPLLEKWLNDAE [K59P] reads -0.72 ± 0.027.

Consider LEELEQFAKTFKQRRIKLGFTQGDVGLAMGKLYGNDFSQTTISRFEALNLSFKNMCKLIPLLEKWLNDAE [K59I], for which the abundance fitness was -0.13 ± 0.051.

Regarding LEELEQFAKTFKQRRIKLGFTQGDVGLAMGKLYGNDFSQTTISRFEALNLSFKNMCKLSPLLEKWLNDAE [K59S], the abundance fitness was -0.092 ± 0.023. Next, LEELEQFAKTFKQRRIKLGFTQGDVGLAMGKLYGNDFSQTTISRFEALNLSFKNMCKLYPLLEKWLNDAE [K59Y]: -0.072 ± 0.054; LEELEQFAKTFKQRRIKLGFTQGDVGLAMGKLYGNDFSQTTISRFEALNLSFKNMCKLGPLLEKWLNDAE [K59G]: -0.175 ± 0.029; LEELEQFAKTFKQRRIKLGFTQGDVGLAMGKLYGNDFSQTTISRFEALNLSFKNMCKLTPLLEKWLNDAE [K59T]: -0.033 ± 0.031.

Turning to LEELEQFAKTFKQRRIKLGFTQGDVGLAMGKLYGNDFSQTTISRFEALNLSFKNMCKLCPLLEKWLNDAE [K59C], the abundance fitness is -0.134 ± 0.039. The result for LEELEQFAKTFKQRRIKLGFTQGDVGLAMGKLYGNDFSQTTISRFEALNLSFKNMCKLLPLLEKWLNDAE [K59L] reads -0.06 ± 0.023; that for LEELEQFAKTFKQRRIKLGFTQGDVGLAMGKLYGNDFSQTTISRFEALNLSFKNMCKLQPLLEKWLNDAE [K59Q], -0.037 ± 0.045; that for LEELEQFAKTFKQRRIKLGFTQGDVGLAMGKLYGNDFSQTTISRFEALNLSFKNMCKLWPLLEKWLNDAE [K59W], -0.026 ± 0.044.

On to LEELEQFAKTFKQRRIKLGFTQGDVGLAMGKLYGNDFSQTTISRFEALNLSFKNMCKLVPLLEKWLNDAE [K59V], for which the abundance fitness is -0.056 ± 0.033.

As for LEELEQFAKTFKQRRIKLGFTQGDVGLAMGKLYGNDFSQTTISRFEALNLSFKNMCKLFPLLEKWLNDAE [K59F], the abundance fitness was -0.138 ± 0.037. Next, LEELEQFAKTFKQRRIKLGFTQGDVGLAMGKLYGNDFSQTTISRFEALNLSFKNMCKLRPLLEKWLNDAE [K59R]: -0.005 ± 0.023. The result for LEELEQFAKTFKQRRIKLGFTQGDVGLAMGKLYGNDFSQTTISRFEALNLSFKNMCKLKNLLEKWLNDAE [P60N] reads -0.094 ± 0.041. LEELEQFAKTFKQRRIKLGFTQGDVGLAMGKLYGNDFSQTTISRFEALNLSFKNMCKLKMLLEKWLNDAE [P60M]: the abundance fitness was -0.065 ± 0.057. Next, LEELEQFAKTFKQRRIKLGFTQGDVGLAMGKLYGNDFSQTTISRFEALNLSFKNMCKLKFLLEKWLNDAE [P60F]: -0.114 ± 0.037.

For LEELEQFAKTFKQRRIKLGFTQGDVGLAMGKLYGNDFSQTTISRFEALNLSFKNMCKLKALLEKWLNDAE [P60A], the abundance fitness was -0.066 ± 0.077.

Consider LEELEQFAKTFKQRRIKLGFTQGDVGLAMGKLYGNDFSQTTISRFEALNLSFKNMCKLKCLLEKWLNDAE [P60C], for which the abundance fitness was -0.051 ± 0.058. The result for LEELEQFAKTFKQRRIKLGFTQGDVGLAMGKLYGNDFSQTTISRFEALNLSFKNMCKLKKLLEKWLNDAE [P60K] reads -0.072 ± 0.047; that for LEELEQFAKTFKQRRIKLGFTQGDVGLAMGKLYGNDFSQTTISRFEALNLSFKNMCKLKHLLEKWLNDAE [P60H], -0.094 ± 0.034. The result for LEELEQFAKTFKQRRIKLGFTQGDVGLAMGKLYGNDFSQTTISRFEALNLSFKNMCKLKILLEKWLNDAE [P60I] reads -0.059 ± 0.042; that for LEELEQFAKTFKQRRIKLGFTQGDVGLAMGKLYGNDFSQTTISRFEALNLSFKNMCKLKDLLEKWLNDAE [P60D], -0.042 ± 0.17; that for LEELEQFAKTFKQRRIKLGFTQGDVGLAMGKLYGNDFSQTTISRFEALNLSFKNMCKLKQLLEKWLNDAE [P60Q], -0.094 ± 0.033. As for LEELEQFAKTFKQRRIKLGFTQGDVGLAMGKLYGNDFSQTTISRFEALNLSFKNMCKLKLLLEKWLNDAE [P60L], the abundance fitness was -0.074 ± 0.022.
